# Laboratory results from the RNAGym collection of RNA variant scans (doi:10.7554/elife.90254).
# B1: LINE1-mini (parent)
# chain: GGCAGAGCUCAACACAGCGUGGCAAAGUGGCUGUGGCUAGACUGCC
# Variants of: B1
# Experiment: self-cleavage, relative activity (ratio to wild type); higher = more cleavage; in vitro, sequencing; the parent is a self-cleaving ribozyme
row,Variant,self-cleavage
1,G5A C31G,0.05
2,G5A C31U,0.06
3,G5A C31A,0.08
4,G5A,0.16
5,G5A C15A,0.1
6,G5A C15G,0.05
7,G5A C15U,0.11
8,G5A C8A,0.27
9,G5A C8G,0.22
10,G5A C8U,0.44
11,A4U A25G,0.08
12,A4U A25C,0.08
13,A4U A25U,0.84
14,A4U A41G,0.05
15,A4U A41C,0.11
16,A4U A41U,0.12
17,G5A C45G,0.14
18,G5A C45A,0.22
19,G5A C45U,0.12
20,A4G G22C,0.91
21,A4G G22A,1.25
22,A4G G22U,1.14
23,A4U G27C,0.17
24,A4U G27A,0.19

row,Variant,self-cleavage
1,A4U G27U,0.14
2,A4U C37G,0.08
3,A4U C37U,0.15
4,A4U C37A,0.16
5,G5A A12G,0.08
6,G5A A12U,0.09
7,G5A A12C,0.04
8,A4U U43A,0.67
9,A4U U43G,0.06
10,A4U U43C,0.03
11,A4G G29U,0.63
12,A4G G29C,0.12
13,A4G G29A,0.36
14,A4U G5C,0.45
15,A4U G5A,0.1
16,A4U G5U,0.12
17,A4U U20C,0.13
18,A4U U20G,0.09
19,A4U U20A,0.12
20,A4U C42U,0.14
21,A4U C42G,0.08
22,A4U C42A,0.11
23,A4U G35U,0.13
24,A4U G35A,0.14

row,Variant,self-cleavage
1,A4U G35C,0.11
2,A4G A41G,0.11
3,A4G A41C,0.19
4,A4G A41U,0.3
5,A4U U32C,0.14
6,A4U U32A,0.06
7,A4U U32G,0.14
8,A4G G35U,0.19
9,A4G G35C,0.1
10,A4G G35A,0.15
11,A4U G7A,0.31
12,A4U G7C,0.18
13,A4U G7U,0.2
14,A4G U34G,0.08
15,A4G U34A,0.07
16,A4G U34C,0.12
17,A4U G30C,0.21
18,A4U G30U,0.22
19,A4U G30A,0.42
20,A4G A39G,0.22
21,A4G A39C,0.06
22,A4G A39U,0.33
23,A4U U9A,0.29
24,A4U U9C,0.07

row,Variant,self-cleavage
1,A4U U9G,0.07
2,A4G G30C,0.91
3,A4G G30U,0.45
4,A4G G30A,1.37
5,A4G C46G,0.24
6,A4G C46A,0.4
7,A4G C46U,0.39
8,A4G C42A,0.09
9,A4G C42U,0.22
10,A4G C42G,0.02
11,G5A A39C,0.24
12,G5A A39G,0.08
13,G5A A39U,0.1
14,A4U G36U,0.08
15,A4U G36A,0.12
16,A4U G36C,0.07
17,A4U C13A,0.12
18,A4U C13G,0.1
19,A4U C13U,0.14
20,A4U G19U,0.15
21,A4U G19A,0.68
22,A4U G19C,0.05
23,A4G U28G,0.3
24,A4G U28C,1.09

row,Variant,self-cleavage
1,A4G U28A,0.13
2,A4U G44A,0.17
3,A4U G44U,0.25
4,A4U G44C,0.12
5,G5A G33U,0.05
6,G5A G33C,0.09
7,G5A G33A,0.1
8,A4G C13A,0.27
9,A4G C13G,0.2
10,A4G C13U,0.23
11,A4G G21C,0.24
12,A4G G21U,0.68
13,A4G G21A,1.05
14,A4U U34G,0.06
15,A4U U34C,0.08
16,A4U U34A,0.08
17,A4U A12G,0.05
18,A4U A12U,0.12
19,A4U A12C,0.03
20,A4U G40U,0.14
21,A4U G40A,0.17
22,A4U G40C,0.07
23,G5A G27A,0.1
24,G5A G27U,0.08

row,Variant,self-cleavage
1,G5A G27C,0.07
2,A4U C23U,0.41
3,A4U C23A,0.16
4,A4U C23G,0.37
5,A4G U32G,0.08
6,A4G U32C,0.15
7,A4G U32A,0.06
8,G5A C37U,0.13
9,G5A C37A,0.06
10,G5A C37G,0.05
11,A4U U28G,0.17
12,A4U U28C,0.32
13,A4U U28A,0.19
14,G5A A11G,0.03
15,G5A A11U,0.04
16,G5A A11C,0.03
17,A4G C15A,0.08
18,A4G C15U,0.65
19,A4G C15G,0.14
20,A4G C23U,0.5
21,A4G C23G,0.41
22,A4G C23A,0.44
23,A4U G29A,0.2
24,A4U G29U,0.23

row,Variant,self-cleavage
1,A4U G29C,0.24
2,G5A C18U,0.14
3,G5A C18G,0.09
4,G5A C18A,0.1
5,G5A A24C,0.08
6,G5A A24G,0.23
7,G5A A24U,0.11
8,A4G G5C,0.07
9,A4G G5A,0.15
10,A4G G5U,0.16
11,A4G G27C,0.24
12,A4G G27A,0.4
13,A4G G27U,0.31
14,G5A G21C,0.13
15,G5A G21A,0.25
16,G5A G21U,0.14
17,G5A G30U,0.19
18,G5A G30C,0.12
19,G5A G30A,0.22
20,A4G C8A,0.32
21,A4G C8U,0.24
22,A4G C8G,0.11
23,G5A C23G,0.29
